Measured values published in patent CN117545772A (FUSION THERAPEUTICS INC, dated 2024).
“And” between values parts separate entries of the source, which are not always exact repeats. Equal entries are not always repeated.

B1: 抗CD123 VHH 1A3 (VHH)
VHH: EVQLVESGGGLVQAGGSLRLSCAASGRAINTYAMAWFRQAPGKERDFVATISYSGGTTDYAGSVKGRFTISRDNAENTVYLQMNSLKPEDTAVYYCAARDRYNPLARNYNYWGQGTQVTVSS
notes: also called 1A3抗体
B2: 1D2-5C8var1(Y105F)-Fc (bispecific antibody, V domains shown)
V domain 1: EVQLLESGGGSVQPGGSLRLSCAASGRPFSNYAMSWFRQAPGKEREFVSAISWSGGSTSYADSVKGRFTISRDNSKNTLYLQMNSLRAEDTAVYYCAAQFSGADFGFGRLGIRGYEYDYWGQGTQVTVSS
V domain 2: EVQLVESGGGLVQAGGSLRLSCAASGRTASSYVMGWFRQAPGKEREFVAVINWNGDSTYYTDSVKGRFAISRDNAKNTVYLQMNSLKPEDTAVYYCAADTRREWYRDGYWGPPARYEYDYRGQGTQVTVSS

Columns and labels:
[1] = molecular target: T1, 重组人CD123抗原(细胞外结构域，Sino Biological) (human, UniProt P26951 19-305); test: phage ELISA on captured recombinant antigen
T1 construct: Bought; also called 重组的纯化CD123抗原
T1 sequence: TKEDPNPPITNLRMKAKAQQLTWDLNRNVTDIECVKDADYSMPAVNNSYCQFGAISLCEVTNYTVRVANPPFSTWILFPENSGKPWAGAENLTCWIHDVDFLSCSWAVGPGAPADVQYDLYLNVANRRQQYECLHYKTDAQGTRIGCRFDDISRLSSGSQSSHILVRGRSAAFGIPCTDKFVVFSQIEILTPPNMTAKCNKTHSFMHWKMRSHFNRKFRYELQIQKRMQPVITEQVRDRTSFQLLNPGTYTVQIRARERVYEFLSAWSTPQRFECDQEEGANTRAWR

人CD123 (在细胞上表达) [2] = molecular target: T2, 人CD123 (在细胞上表达) (human, UniProt P26951 19-378); test: flow cytometry on the C1R-CD1d cells expressing CD123 used for immunisation
T2 construct: Used for all cells that carry CD123; the cell is named under assay or readout; Expression construct for 293F bought from Invivogen; also called 白介素-3受体α链; 瞬时表达CD123的293F细胞

人CD123 (在细胞上表达) [3] = molecular target: T2, 人CD123 (在细胞上表达); test: cell-based or functional assay

| Binder | binding result [1] | binding result (人CD123 (在细胞上表达) [2]) | EC50 of T细胞介导的THP-1靶细胞的细胞毒性 (24小时) (人CD123 (在细胞上表达) [3]) | THP-1裂解的EC50 (2号供体) (人CD123 (在细胞上表达) [3]) [pM] | THP-1靶细胞裂解的效力(EC50), THP-1:pDC:Vγ9Vδ2T 1:1:2共培养 (人CD123 (在细胞上表达) [3]) [pM] | pDC裂解的EC50 (2号供体) (人CD123 (在细胞上表达) [3]) [pM] | pDC裂解的EC50相对于THP-1裂解的EC50 (人CD123 (在细胞上表达) [3]) [fold] |
| --- | --- | --- | --- | --- | --- | --- | --- |
| B1 | binds | binds | – | – | – | – | – |
| B2 | – | – | 1 pM and 3 pM | 1 | ~1 | 11 | ~10 |
